Source: article PMC10333379

Target: human angiotensin-converting enzyme 2 (hACE2) with an Fc domain (human) (UniProt Q9BYF1)
Assay: BLI

Sequence of UniProt Q9BYF1 (Q9BYF1 18-740): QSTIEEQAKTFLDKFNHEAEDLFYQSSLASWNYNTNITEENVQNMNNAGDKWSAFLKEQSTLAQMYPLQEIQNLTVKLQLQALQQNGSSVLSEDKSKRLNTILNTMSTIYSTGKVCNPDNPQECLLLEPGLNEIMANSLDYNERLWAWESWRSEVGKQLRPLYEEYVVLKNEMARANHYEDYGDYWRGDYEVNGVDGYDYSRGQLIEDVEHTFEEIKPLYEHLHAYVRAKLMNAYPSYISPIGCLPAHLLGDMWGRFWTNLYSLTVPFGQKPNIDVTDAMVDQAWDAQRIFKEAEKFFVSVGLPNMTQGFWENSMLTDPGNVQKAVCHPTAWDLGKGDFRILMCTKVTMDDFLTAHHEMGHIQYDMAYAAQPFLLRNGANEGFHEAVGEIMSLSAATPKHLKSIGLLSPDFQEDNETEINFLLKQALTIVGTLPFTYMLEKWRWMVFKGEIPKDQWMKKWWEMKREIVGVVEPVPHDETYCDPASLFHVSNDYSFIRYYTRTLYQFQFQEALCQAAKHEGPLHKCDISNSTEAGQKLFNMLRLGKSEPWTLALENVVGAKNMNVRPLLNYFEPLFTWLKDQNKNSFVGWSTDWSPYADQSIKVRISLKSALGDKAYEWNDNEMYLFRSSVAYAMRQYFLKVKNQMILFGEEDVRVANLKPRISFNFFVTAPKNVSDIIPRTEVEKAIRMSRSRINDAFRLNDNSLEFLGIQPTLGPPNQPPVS

Substance: Bat SARS-like coronavirus CX1 receptor-binding domain (RBD) of spike protein (domain or fragment)
- Kd: 10.7 nM
